Measured values reported in the MegaScale stability set (Tsuboyama et al. 2023).

B1: HEEH_KT_rd6_3632 (parent)
chain: DAEELIELVERALKEGREIILLGVRITSEEAGKWFIEWIRRFL

Variants of: B1
Experiment: folding stability dG (cDNA display proteolysis); higher = more stable
Conditions: PBS, room temperature

Point of comparison: DAEELIDLVERALKEGREIILLGVRITSEEAGKWFIEWIRRFL [E7D], “folding stability dG” value 3.7 kcal/mol. Against it:
- DAEELRELVERALKEGREIILLGVRITSEEAGKWFIEWIRRFL [I6R] — lower, 3.38 kcal/mol
- DAEELTELVERALKEGREIILLGVRITSEEAGKWFIEWIRRFL [I6T] — lower, 3.25 kcal/mol
- DAEELQELVERALKEGREIILLGVRITSEEAGKWFIEWIRRFL [I6Q] — lower, 3.16 kcal/mol
- DAEELIQLVERALKEGREIILLGVRITSEEAGKWFIEWIRRFL [E7Q] — higher, 3.79 kcal/mol
- DAEELIRLVERALKEGREIILLGVRITSEEAGKWFIEWIRRFL [E7R] — higher, 4.18 kcal/mol
- DAEELINLVERALKEGREIILLGVRITSEEAGKWFIEWIRRFL [E7N] — higher, 3.89 kcal/mol
- DAEELITLVERALKEGREIILLGVRITSEEAGKWFIEWIRRFL [E7T] — higher, 3.82 kcal/mol
- DAEELILLVERALKEGREIILLGVRITSEEAGKWFIEWIRRFL [E7L] — higher, 3.91 kcal/mol
- DAEELIFLVERALKEGREIILLGVRITSEEAGKWFIEWIRRFL [E7F] — higher, 3.74 kcal/mol
- DAEELIKLVERALKEGREIILLGVRITSEEAGKWFIEWIRRFL [E7K] — higher, 4.05 kcal/mol
- DAEELIHLVERALKEGREIILLGVRITSEEAGKWFIEWIRRFL [E7H] — higher, 3.84 kcal/mol
- DAEELIGLVERALKEGREIILLGVRITSEEAGKWFIEWIRRFL [E7G] — higher, 3.89 kcal/mol
- DAEELIILVERALKEGREIILLGVRITSEEAGKWFIEWIRRFL [E7I] — higher, 3.79 kcal/mol
- DAEELICLVERALKEGREIILLGVRITSEEAGKWFIEWIRRFL [E7C] — higher, 4.46 kcal/mol
- DAEELIWLVERALKEGREIILLGVRITSEEAGKWFIEWIRRFL [E7W] — higher, 3.83 kcal/mol
- DAEELIMLVERALKEGREIILLGVRITSEEAGKWFIEWIRRFL [E7M] — higher, 3.82 kcal/mol
- DAEELIALVERALKEGREIILLGVRITSEEAGKWFIEWIRRFL [E7A] — higher, 3.99 kcal/mol
- DAEELIYLVERALKEGREIILLGVRITSEEAGKWFIEWIRRFL [E7Y] — higher, 3.77 kcal/mol
- DAEELIPLVERALKEGREIILLGVRITSEEAGKWFIEWIRRFL [E7P] — lower, 3.1 kcal/mol
- DAEELISLVERALKEGREIILLGVRITSEEAGKWFIEWIRRFL [E7S] — higher, 3.88 kcal/mol
- DAEELIVLVERALKEGREIILLGVRITSEEAGKWFIEWIRRFL [E7V] — higher, 3.74 kcal/mol
- DAEVLIELVERALKEGREIILLGVRITSEEAGKWFIEWIRRFL [E4V] — higher, 3.91 kcal/mol
- DAEILIELVERALKEGREIILLGVRITSEEAGKWFIEWIRRFL [E4I] — higher, 4.06 kcal/mol
- DAEPLIELVERALKEGREIILLGVRITSEEAGKWFIEWIRRFL [E4P] — lower, 3.64 kcal/mol
- DAEYLIELVERALKEGREIILLGVRITSEEAGKWFIEWIRRFL [E4Y] — higher, 4.24 kcal/mol
- DAEMLIELVERALKEGREIILLGVRITSEEAGKWFIEWIRRFL [E4M] — higher, 4.01 kcal/mol
- DAELLIELVERALKEGREIILLGVRITSEEAGKWFIEWIRRFL [E4L] — higher, 4.1 kcal/mol
- DAEWLIELVERALKEGREIILLGVRITSEEAGKWFIEWIRRFL [E4W] — higher, 4.19 kcal/mol
- DAEQLIELVERALKEGREIILLGVRITSEEAGKWFIEWIRRFL [E4Q] — higher, 3.95 kcal/mol
- DAEFLIELVERALKEGREIILLGVRITSEEAGKWFIEWIRRFL [E4F] — higher, 4.15 kcal/mol
- DAETLIELVERALKEGREIILLGVRITSEEAGKWFIEWIRRFL [E4T] — higher, 4.03 kcal/mol
- DAEHLIELVERALKEGREIILLGVRITSEEAGKWFIEWIRRFL [E4H] — higher, 4.09 kcal/mol
- DAECLIELVERALKEGREIILLGVRITSEEAGKWFIEWIRRFL [E4C] — higher, 4.61 kcal/mol
- DAENLIELVERALKEGREIILLGVRITSEEAGKWFIEWIRRFL [E4N] — higher, 3.78 kcal/mol
- DAEALIELVERALKEGREIILLGVRITSEEAGKWFIEWIRRFL [E4A] — higher, 3.96 kcal/mol
- DAEDLIELVERALKEGREIILLGVRITSEEAGKWFIEWIRRFL [E4D] — lower, 3.65 kcal/mol
- DAEGLIELVERALKEGREIILLGVRITSEEAGKWFIEWIRRFL [E4G] — higher, 3.92 kcal/mol
- DAERLIELVERALKEGREIILLGVRITSEEAGKWFIEWIRRFL [E4R] — higher, 4.21 kcal/mol
- DAESLIELVERALKEGREIILLGVRITSEEAGKWFIEWIRRFL [E4S] — higher, 3.89 kcal/mol
- DAEKLIELVERALKEGREIILLGVRITSEEAGKWFIEWIRRFL [E4K] — higher, 4.18 kcal/mol
- DAEELIETVERALKEGREIILLGVRITSEEAGKWFIEWIRRFL [L8T] — lower, 3.28 kcal/mol
- DAEELIEIVERALKEGREIILLGVRITSEEAGKWFIEWIRRFL [L8I] — lower, 3.61 kcal/mol
- DAEELIEGVERALKEGREIILLGVRITSEEAGKWFIEWIRRFL [L8G] — lower, 3.03 kcal/mol
- DAEELIEMVERALKEGREIILLGVRITSEEAGKWFIEWIRRFL [L8M] — lower, 3.69 kcal/mol
- DAEELIEDVERALKEGREIILLGVRITSEEAGKWFIEWIRRFL [L8D] — lower, 2.92 kcal/mol
- DAEELIENVERALKEGREIILLGVRITSEEAGKWFIEWIRRFL [L8N] — lower, 2.93 kcal/mol
- DAEELIEAVERALKEGREIILLGVRITSEEAGKWFIEWIRRFL [L8A] — lower, 3.47 kcal/mol
- DAEELIEYVERALKEGREIILLGVRITSEEAGKWFIEWIRRFL [L8Y] — lower, 3.49 kcal/mol
- DAEELIESVERALKEGREIILLGVRITSEEAGKWFIEWIRRFL [L8S] — lower, 3.08 kcal/mol
- DAEELIEEVERALKEGREIILLGVRITSEEAGKWFIEWIRRFL [L8E] — lower, 3.29 kcal/mol
- DAEELIEVVERALKEGREIILLGVRITSEEAGKWFIEWIRRFL [L8V] — lower, 3.26 kcal/mol
- DAEELIEHVERALKEGREIILLGVRITSEEAGKWFIEWIRRFL [L8H] — lower, 3.26 kcal/mol
- DAEELIEFVERALKEGREIILLGVRITSEEAGKWFIEWIRRFL [L8F] — higher, 3.77 kcal/mol
- DAEELIEKVERALKEGREIILLGVRITSEEAGKWFIEWIRRFL [L8K] — lower, 3.46 kcal/mol
- DAEELIEQVERALKEGREIILLGVRITSEEAGKWFIEWIRRFL [L8Q] — lower, 3.49 kcal/mol
- DAEELIEPVERALKEGREIILLGVRITSEEAGKWFIEWIRRFL [L8P] — lower, 2.77 kcal/mol
- DAEELIEWVERALKEGREIILLGVRITSEEAGKWFIEWIRRFL [L8W] — the same, 3.7 kcal/mol
- DAEELIERVERALKEGREIILLGVRITSEEAGKWFIEWIRRFL [L8R] — lower, 3.53 kcal/mol
